Laboratory results from IntAct's records for PubMed 20562859.

Assays:
ATG16L2 = target: T1, ATG16L2 (UniProt Q8NAA4)
T1 sequence: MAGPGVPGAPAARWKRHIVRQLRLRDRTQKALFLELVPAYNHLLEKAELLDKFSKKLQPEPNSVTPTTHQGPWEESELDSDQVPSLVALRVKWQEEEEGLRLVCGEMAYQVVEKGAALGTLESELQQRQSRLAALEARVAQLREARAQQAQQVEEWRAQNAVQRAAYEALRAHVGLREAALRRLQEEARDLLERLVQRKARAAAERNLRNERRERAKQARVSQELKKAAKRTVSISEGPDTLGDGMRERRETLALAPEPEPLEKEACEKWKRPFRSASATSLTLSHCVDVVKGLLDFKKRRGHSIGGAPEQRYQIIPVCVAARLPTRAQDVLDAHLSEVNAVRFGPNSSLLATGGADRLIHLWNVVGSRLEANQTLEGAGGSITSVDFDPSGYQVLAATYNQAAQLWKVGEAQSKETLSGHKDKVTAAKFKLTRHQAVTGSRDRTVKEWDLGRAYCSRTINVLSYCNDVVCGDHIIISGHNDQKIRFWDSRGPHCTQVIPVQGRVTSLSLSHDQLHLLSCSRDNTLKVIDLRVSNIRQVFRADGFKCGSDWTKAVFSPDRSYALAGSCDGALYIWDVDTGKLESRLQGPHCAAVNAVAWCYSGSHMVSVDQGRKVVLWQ

kap0_human PRKAR1A = kap0_human PRKAR1A (UniProt P10644)
Chain of kap0_human PRKAR1A (P10644 whole entry): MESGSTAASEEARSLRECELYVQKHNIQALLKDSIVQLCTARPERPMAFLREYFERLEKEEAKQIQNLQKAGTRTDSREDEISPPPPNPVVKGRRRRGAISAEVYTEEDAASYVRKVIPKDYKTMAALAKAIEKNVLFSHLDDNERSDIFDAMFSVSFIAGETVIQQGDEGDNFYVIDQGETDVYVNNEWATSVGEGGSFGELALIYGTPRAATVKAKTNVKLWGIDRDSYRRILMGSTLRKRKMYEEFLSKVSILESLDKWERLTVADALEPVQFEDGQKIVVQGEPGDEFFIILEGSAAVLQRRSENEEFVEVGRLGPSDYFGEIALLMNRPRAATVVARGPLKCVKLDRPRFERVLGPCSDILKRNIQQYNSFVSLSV

rasf1_human RASSF1 = target: T2, rasf1_human RASSF1 (UniProt Q9NS23)
T2 sequence: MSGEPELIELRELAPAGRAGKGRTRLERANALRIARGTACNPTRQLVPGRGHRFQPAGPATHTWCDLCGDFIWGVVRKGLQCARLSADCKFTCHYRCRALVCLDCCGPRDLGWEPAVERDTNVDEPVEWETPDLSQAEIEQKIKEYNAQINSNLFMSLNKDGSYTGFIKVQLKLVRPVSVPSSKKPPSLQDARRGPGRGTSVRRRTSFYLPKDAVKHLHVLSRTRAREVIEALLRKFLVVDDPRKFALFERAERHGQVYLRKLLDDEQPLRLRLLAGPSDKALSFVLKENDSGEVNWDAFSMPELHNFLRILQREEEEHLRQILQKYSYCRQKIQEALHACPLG

tbd2b_human TBC1D2B = target: T3, tbd2b_human TBC1D2B (UniProt Q9UPU7)
T3 sequence: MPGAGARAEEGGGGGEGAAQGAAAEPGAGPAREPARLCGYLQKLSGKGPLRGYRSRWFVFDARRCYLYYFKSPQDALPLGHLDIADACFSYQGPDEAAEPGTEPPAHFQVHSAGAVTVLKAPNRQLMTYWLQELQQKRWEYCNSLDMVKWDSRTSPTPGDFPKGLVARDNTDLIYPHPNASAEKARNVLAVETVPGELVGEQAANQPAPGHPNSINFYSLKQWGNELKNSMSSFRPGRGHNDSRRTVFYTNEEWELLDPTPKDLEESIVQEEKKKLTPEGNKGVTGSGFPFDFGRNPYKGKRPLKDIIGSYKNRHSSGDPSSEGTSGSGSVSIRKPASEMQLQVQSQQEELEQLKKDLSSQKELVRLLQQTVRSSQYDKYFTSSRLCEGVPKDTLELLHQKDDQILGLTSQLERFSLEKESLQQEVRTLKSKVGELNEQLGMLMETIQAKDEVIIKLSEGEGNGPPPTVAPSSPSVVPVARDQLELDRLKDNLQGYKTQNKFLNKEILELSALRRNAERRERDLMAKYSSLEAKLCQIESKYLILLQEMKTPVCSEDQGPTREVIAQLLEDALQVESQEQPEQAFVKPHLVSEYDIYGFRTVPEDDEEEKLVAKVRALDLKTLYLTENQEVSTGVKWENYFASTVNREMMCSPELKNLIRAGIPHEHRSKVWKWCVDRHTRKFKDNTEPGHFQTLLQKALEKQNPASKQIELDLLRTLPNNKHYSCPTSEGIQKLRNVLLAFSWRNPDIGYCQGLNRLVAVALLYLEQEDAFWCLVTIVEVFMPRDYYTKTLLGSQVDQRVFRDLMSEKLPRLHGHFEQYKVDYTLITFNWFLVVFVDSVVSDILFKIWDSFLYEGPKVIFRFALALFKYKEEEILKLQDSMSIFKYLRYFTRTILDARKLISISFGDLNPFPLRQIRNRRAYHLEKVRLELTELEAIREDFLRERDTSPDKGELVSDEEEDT

fan_human NSMAF = fan_human NSMAF (UniProt Q92636)
Chain of fan_human NSMAF (Q92636 whole entry): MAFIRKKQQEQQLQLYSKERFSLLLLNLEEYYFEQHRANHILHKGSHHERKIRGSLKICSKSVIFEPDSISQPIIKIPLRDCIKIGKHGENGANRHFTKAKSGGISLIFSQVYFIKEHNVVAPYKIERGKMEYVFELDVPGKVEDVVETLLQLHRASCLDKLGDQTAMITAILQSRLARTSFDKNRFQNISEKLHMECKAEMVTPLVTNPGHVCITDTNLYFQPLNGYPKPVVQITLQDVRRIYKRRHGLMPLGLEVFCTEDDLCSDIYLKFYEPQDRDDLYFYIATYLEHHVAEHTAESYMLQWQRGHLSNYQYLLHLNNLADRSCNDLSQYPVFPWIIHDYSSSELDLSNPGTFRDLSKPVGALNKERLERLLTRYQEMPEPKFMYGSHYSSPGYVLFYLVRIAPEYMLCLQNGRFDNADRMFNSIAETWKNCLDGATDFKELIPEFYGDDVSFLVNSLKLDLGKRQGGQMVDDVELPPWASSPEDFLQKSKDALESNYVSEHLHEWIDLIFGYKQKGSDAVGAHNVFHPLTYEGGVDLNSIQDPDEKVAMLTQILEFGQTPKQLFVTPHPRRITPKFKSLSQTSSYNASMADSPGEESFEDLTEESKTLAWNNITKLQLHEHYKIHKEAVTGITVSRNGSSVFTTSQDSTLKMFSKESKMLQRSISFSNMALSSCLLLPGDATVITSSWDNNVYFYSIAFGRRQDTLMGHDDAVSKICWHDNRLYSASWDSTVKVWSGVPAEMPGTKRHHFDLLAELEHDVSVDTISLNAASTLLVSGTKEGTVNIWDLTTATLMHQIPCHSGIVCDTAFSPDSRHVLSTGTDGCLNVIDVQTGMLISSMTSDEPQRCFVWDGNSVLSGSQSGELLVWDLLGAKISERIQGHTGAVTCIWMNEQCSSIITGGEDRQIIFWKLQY

stk4_human STK4 = target: T4, stk4_human STK4 (UniProt Q13043)
T4 sequence: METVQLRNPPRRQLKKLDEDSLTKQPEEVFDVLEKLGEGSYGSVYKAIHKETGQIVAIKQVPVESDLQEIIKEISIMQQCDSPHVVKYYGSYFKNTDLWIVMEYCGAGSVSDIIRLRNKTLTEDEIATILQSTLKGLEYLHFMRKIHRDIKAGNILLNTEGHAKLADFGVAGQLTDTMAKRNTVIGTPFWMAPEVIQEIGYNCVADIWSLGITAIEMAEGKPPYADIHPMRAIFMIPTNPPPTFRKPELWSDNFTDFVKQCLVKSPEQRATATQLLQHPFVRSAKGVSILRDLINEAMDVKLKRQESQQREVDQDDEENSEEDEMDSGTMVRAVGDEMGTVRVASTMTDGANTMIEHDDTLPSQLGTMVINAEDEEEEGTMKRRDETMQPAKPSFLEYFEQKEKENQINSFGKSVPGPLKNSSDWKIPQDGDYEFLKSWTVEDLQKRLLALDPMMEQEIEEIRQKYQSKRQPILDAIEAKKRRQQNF

uba5_human UBA5 = uba5_human UBA5 (UniProt Q9GZZ9)
Chain of uba5_human UBA5 (Q9GZZ9 whole entry): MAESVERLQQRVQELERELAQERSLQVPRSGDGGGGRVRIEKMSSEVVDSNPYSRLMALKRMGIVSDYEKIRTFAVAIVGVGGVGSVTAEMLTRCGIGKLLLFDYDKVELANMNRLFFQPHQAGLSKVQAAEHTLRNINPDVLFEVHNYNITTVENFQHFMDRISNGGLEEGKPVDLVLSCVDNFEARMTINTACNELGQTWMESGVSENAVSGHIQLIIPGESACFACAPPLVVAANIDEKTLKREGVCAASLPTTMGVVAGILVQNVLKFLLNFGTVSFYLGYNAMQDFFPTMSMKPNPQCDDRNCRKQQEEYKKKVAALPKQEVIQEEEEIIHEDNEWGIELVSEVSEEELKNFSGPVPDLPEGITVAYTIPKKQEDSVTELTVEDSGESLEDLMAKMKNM

effect of a mutation on the interaction (ATG16L2)	effect of a mutation on the interaction (kap0_human PRKAR1A)	effect of a mutation on the interaction (rasf1_human RASSF1)	effect of a mutation on the interaction (tbd2b_human TBC1D2B)	effect of a mutation on the interaction (fan_human NSMAF)	effect of a mutation on the interaction (stk4_human STK4)	effect of a mutation on the interaction (uba5_human UBA5)	Substance
increasing interaction	–	–	–	–	–	–	Microtubule-associated protein 1 light chain 3 beta (Homo sapiens) (from UniProt Q9GZQ8) F52A;L53A
–	decreasing interaction	decreasing interaction	disrupting interaction	disrupting interaction	disrupting interaction	disrupting interaction	Microtubule-associated protein 1 light chain 3 beta (Homo sapiens) (from UniProt Q9GZQ8) R69A
